Patent US20180155451A1 (published 2018)

T1: FcγRIIb extracellular domain with C-terminal His tag (human, UniProt P31994 43-217)
T1 construct: extracellular domain; also called FcgRIIb; 2b; not shown: His tag at the C terminus
T1 sequence (looked up): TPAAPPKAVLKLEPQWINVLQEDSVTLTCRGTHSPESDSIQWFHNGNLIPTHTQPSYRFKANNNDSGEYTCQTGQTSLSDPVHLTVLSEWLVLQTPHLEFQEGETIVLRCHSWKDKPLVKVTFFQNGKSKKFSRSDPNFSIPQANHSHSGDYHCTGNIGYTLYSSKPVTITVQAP

T2: FcγRIIa R (FcγRIIa, allotype R: Arg at position 131) extracellular domain with C-terminal His tag (human, UniProt P12318 34-217)
T2 construct: extracellular domain; also called FcgRIIa R; 2aR; not shown: His tag at the C terminus
T2 sequence (looked up): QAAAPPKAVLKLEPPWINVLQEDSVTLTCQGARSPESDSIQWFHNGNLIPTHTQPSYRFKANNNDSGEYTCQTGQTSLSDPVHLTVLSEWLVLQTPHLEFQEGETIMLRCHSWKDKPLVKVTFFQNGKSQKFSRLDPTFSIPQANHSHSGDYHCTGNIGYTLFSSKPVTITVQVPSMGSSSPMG

B1: GpH7-A5/GpH7-B3 variant G236_03V/GpL16-k0 (antibody, human IgG1, kappa)
heavy 1: not shown
heavy 2: not shown
light: DIVMTQSPLSLPVTPGEPASISCQASESLVHSNRNTYLHWYLQKPGQSPQLLIYKVSNRFSGVPDRFSGSGSGTDFTLKISRVEAEDVGVYYCSQNTHVPPTFGQGTKVEIERTVAAPSVFIFPPSDEQLKSGTASVVCLLNNFYPREAKVQWKVDNALQSGNSQESVTEQDSKDSTYSLSSTLTLSKADYEKHKVYACEVTHQGLSSPVTKSFNRGEC
notes: He Ab: alteration in the GpH7-B3 H chain only; also called He Ab
B2: GpH7-A5/GpH7-B3 variant G236_06M/GpL16-k0 (antibody, human IgG1, kappa)
heavy 1: not shown
heavy 2: not shown
light: B1 light
notes: as for B1
B3: GpH7-A5/GpH7-B3 variant L234_05P/GpL16-k0 (antibody, human IgG1, kappa)
heavy 1: not shown
heavy 2: not shown
light: B1 light
notes: as for B1
B4: GpH7-A5/GpH7-B3 variant L234_01G/GpL16-k0 (antibody, human IgG1, kappa)
heavy 1: not shown
heavy 2: not shown
light: B1 light
notes: as for B1
B5: GpH7-A5/GpH7-B3 variant G236_19Q/GpL16-k0 (antibody, human IgG1, kappa)
heavy 1: not shown
heavy 2: not shown
light: B1 light
notes: as for B1
B6: GpH7-A5/GpH7-B3 variant G236_08L/GpL16-k0 (antibody, human IgG1, kappa)
heavy 1: not shown
heavy 2: not shown
light: B1 light
notes: as for B1
B7: GpH7-A5/GpH7-B3 variant G236_07I/GpL16-k0 (antibody, human IgG1, kappa)
heavy 1: not shown
heavy 2: not shown
light: B1 light
notes: as for B1
B8: GpH7-A5/GpH7-B3 variant G236_13S/GpL16-k0 (antibody, human IgG1, kappa)
heavy 1: not shown
heavy 2: not shown
light: B1 light
notes: as for B1
B9: GpH7-A5/GpH7-B3 variant G236_05P/GpL16-k0 (antibody, human IgG1, kappa)
heavy 1: not shown
heavy 2: not shown
light: B1 light
notes: as for B1
B10: GpH7-A5/GpH7-B3 variant G237_14T/GpL16-k0 (antibody, human IgG1, kappa)
heavy 1: not shown
heavy 2: not shown
light: B1 light
notes: as for B1
B11: GpH7-A5/GpH7-B3 variant G236_16H/GpL16-k0 (antibody, human IgG1, kappa)
heavy 1: not shown
heavy 2: not shown
light: B1 light
notes: as for B1
B12: GpH7-A5/GpH7-B3 variant G237_05P/GpL16-k0 (antibody, human IgG1, kappa)
heavy 1: not shown
heavy 2: not shown
light: B1 light
notes: as for B1
B13: GpH7-A5/GpH7-B3 variant L234_12R/GpL16-k0 (antibody, human IgG1, kappa)
heavy 1: not shown
heavy 2: not shown
light: B1 light
notes: as for B1
B14: GpH7-A5/GpH7-B3 variant G236_04F/GpL16-k0 (antibody, human IgG1, kappa)
heavy 1: not shown
heavy 2: not shown
light: B1 light
notes: as for B1
B15: GpH7-A5/GpH7-B3 variant G237_03V/GpL16-k0 (antibody, human IgG1, kappa)
heavy 1: not shown
heavy 2: not shown
light: B1 light
notes: as for B1
B16: GpH7-A5/GpH7-B3 variant L234_19Q/GpL16-k0 (antibody, human IgG1, kappa)
heavy 1: not shown
heavy 2: not shown
light: B1 light
notes: as for B1
B17: GpH7-A5/GpH7-B3 variant G236_20W/GpL16-k0 (antibody, human IgG1, kappa)
heavy 1: not shown
heavy 2: not shown
light: B1 light
notes: as for B1
B18: GpH7-A5/GpH7-B3 variant L235_01G/GpL16-k0 (antibody, human IgG1, kappa)
heavy 1: not shown
heavy 2: not shown
light: B1 light
notes: as for B1
B19: GpH7-A5/GpH7-B3 variant L234_11K/GpL16-k0 (antibody, human IgG1, kappa)
heavy 1: not shown
heavy 2: not shown
light: B1 light
notes: as for B1
B20: GpH7-A5/GpH7-B3 variant L234_14T/GpL16-k0 (antibody, human IgG1, kappa)
heavy 1: not shown
heavy 2: not shown
light: B1 light
notes: as for B1
B21: GpH7-A5/GpH7-B3 variant G236_14T/GpL16-k0 (antibody, human IgG1, kappa)
heavy 1: not shown
heavy 2: not shown
light: B1 light
notes: as for B1
B22: GpH7-A5/GpH7-B3 variant L234_02A/GpL16-k0 (antibody, human IgG1, kappa)
heavy 1: not shown
heavy 2: not shown
light: B1 light
notes: as for B1
B23: GpH7-A5/GpH7-B3 variant G237_16H/GpL16-k0 (antibody, human IgG1, kappa)
heavy 1: not shown
heavy 2: not shown
light: B1 light
notes: as for B1
B24: GpH7-A5/GpH7-B3 variant G236_12R/GpL16-k0 (antibody, human IgG1, kappa)
heavy 1: not shown
heavy 2: not shown
light: B1 light
notes: as for B1
B25: GpH7-A5/GpH7-B3 variant L235_11K/GpL16-k0 (antibody, human IgG1, kappa)
heavy 1: not shown
heavy 2: not shown
light: B1 light
notes: as for B1
B26: GpH7-A5/GpH7-B3 variant G236_15Y/GpL16-k0 (antibody, human IgG1, kappa)
heavy 1: not shown
heavy 2: not shown
light: B1 light
notes: as for B1
B27: GpH7-A5/GpH7-B3 variant L234_16H/GpL16-k0 (antibody, human IgG1, kappa)
heavy 1: not shown
heavy 2: not shown
light: B1 light
notes: as for B1

Target: T1, FcγRIIb extracellular domain with …
Assay: SPR Biacore, antibody captured, FcgR analyte; vs HeCon Ab GpH7-A5/GpH7-B3/GpL16-k0 = 100

He/Con_2b [control = 100] | Binder
35.3 | B1
45.5 | B2
72.9 | B3
50.7 | B4
46.6 | B5
26.8 | B6
31 | B7
96.7 | B8
19 | B9
54.8 | B10
27.9 | B11
24.6 | B12
18.9 | B13
39.3 | B14
61.4 | B15
60.3 | B16
58.2 | B17
35.4 | B18
16.2 | B19
62.5 | B20
57.8 | B21
64.9 | B22
55.2 | B23
6.8 | B24
6.3 | B25
39.5 | B26
59.4 | B27

Target: T2, FcγRIIa R (FcγRIIa, allotype R: Arg at …)
Assay: as above

He/Con_2aR [control = 100] | Binder
91.6 | B1
57.3 | B2
89.6 | B3
62.3 | B4
74.2 | B5
65.8 | B6
87.1 | B7
136 | B8
47.9 | B9
78.6 | B10
62.7 | B11
34.5 | B12
29.9 | B13
53.1 | B14
93 | B15
75.1 | B16
77.9 | B17
48.5 | B18
26.8 | B19
77.5 | B20
103 | B21
79.6 | B22
74.5 | B23
24.1 | B24
10.8 | B25
58.6 | B26
71.8 | B27

Target: T2, FcγRIIa R (FcγRIIa, allotype R: Arg at …)
Assay: ratio He/Con_2aR : He/Con_2b (FcgRIIa R over FcgRIIb), SPR Biacore
Procedure: The heterodimerized antibodies He Abs in which one of the H chains was introduced with an alteration were assayed for their binding activities to each activating FcγR and inhibitory FcγR according to the method described in Example 4. […] The activating FcγRs in FIGS. 26, 27, 28, and 29 are FcγRIa, FcγRIIa (R), FcγRIIa (H), and FcγRIIIa, respectively.
Analysis of interaction between objective antibody and the FcγR was carried out using Biacore T100 (GE Healthcare). HBS-EP+ (GE Healthcare) was used as the running buffer, and the measurement temperature was set to 25° C. Chips produced by immobilizing the antigen peptide by the amine coupling method to a Series S Sencor Chip CM5 (GE Healthcare), or alternatively, chips produced by allowing preliminarily biotinylated antigen peptides to interact with and immobilize onto a Series S Sensor Chip SA (certified) (GE Healthcare) were used. Antibodies of interest were captured onto an antigen peptide-immobilized chip, and allowed to interact to each FcγR diluted with running buffer. To regenerate and repeatedly use the chip, the antibodies captured on the chip were washed off by reacting 10 mM glycine-HCl, pH 1.5.

He_2aR/2b (IIaR/IIb) | Binder
2.6 | B1
1.26 | B2
1.23 | B3
1.23 | B4
1.59 | B5
2.45 | B6
2.81 | B7
1.41 | B8
2.52 | B9
1.43 | B10
2.24 | B11
1.4 | B12
1.58 | B13
1.35 | B14
1.52 | B15
1.24 | B16
1.34 | B17
1.37 | B18
1.66 | B19
1.24 | B20
1.78 | B21
1.23 | B22
1.35 | B23
3.55 | B24
1.72 | B25
1.48 | B26
1.21 | B27
